Data as given in patent US20250388673A1 (HIFIBIO, published 2025).
Numbering of substitutions follows the chain as printed. Values belong to the binder of their own block, whether it stands above or below them.

Molecular target: T1, human BTLA (human, UniProt Q7Z6A9 31-289)
T1 construct: also called hBTLA; HEK293.hBTLA
T1 sequence: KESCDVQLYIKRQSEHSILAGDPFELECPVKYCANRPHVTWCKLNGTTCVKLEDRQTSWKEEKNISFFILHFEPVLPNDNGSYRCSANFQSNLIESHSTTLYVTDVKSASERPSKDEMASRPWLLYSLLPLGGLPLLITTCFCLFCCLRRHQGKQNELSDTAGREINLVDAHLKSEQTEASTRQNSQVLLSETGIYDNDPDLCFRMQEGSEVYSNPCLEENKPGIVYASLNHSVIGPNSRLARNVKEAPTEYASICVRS
Experiment: flow cytometry, HEK293 cells overexpressing human BTLA
Experimental: HEK293 cells overexpressing human BTLA and Expi293 cells overexpressing cynomolus BTLA were incubated with different concentrations of humanized anti-BTLA antibodies. Anti-BTLA antibody binding to target cells were quantified with an AF647-conjugated anti-human IgG Fc secondary antibody by flow cytometry.

- binding result: binds
B7: HFB6-4hz18-hG1 (antibody, human IgG1, V domains shown)
VH: EVQLVQSGAEVKKPGESLKISCKTSGFNIKDTYIHWVRQMPGKGLEWIGRNDPANGNTKYSPSFQGQVTISADKSISTAYLQLSSLKASDTAMYYCASYEGYYERFGYWGQGTLVTVSS
VL: EIVLTQSPGTLSLSPGERATLSCRSSQSLLDRDGKTYLNWLQQKPGQAPRRLIYLVSKLDSGIPDRFSGSGSGTDFTLTISRLEPEDFAVYYCWQDTHFPYTFGQGTKLEIK
notes: Humanized variant of HFB6-4, human IgG1 (hG1)

- binding result: binds
B8: HFB6-4hz14-hG1 (antibody, human IgG1, V domains shown)
VH: QVQLVQSGAEVKKPGASVKVSCKTSGFNIKDTYIHWVRQAPGQGLEWIGRNDPANGNTKYAQKFQGRVTMTADTSTSTVYMELSSLRSEDTAVYYCASYEGYYERFGYWGQGTLVTVSS
VL: B7 VL
notes: as for B7

- binding result: binds
B9: HFB6-4hz16-hG1 (antibody, human IgG1, V domains shown)
VH: EVQLVESGGGLVQPGGSLKLSCATSGFNIKDTYIHWVRQASGKGLEWIGRNDPANGNTKYAASFKGRATISADDSKNTAYLQLNSLKTEDTAVYYCASYEGYYERFGYWGQGTLVTVSS
VL: B7 VL
notes: as for B7

- binding result: binds
B10: HFB6-4hz20-hG1 (antibody, human IgG1, V domains shown)
VH: B8 VH
VL: DIVMTQSPDSLAVSLGERATINCKSSQSLLDRDGKTYLNWLQQKPGQSPKRLIYLVSKLDSGVPDRFSGSGSGTDFTLTISSLQAEDLAVYYCWQDTHFPYTFGQGTKLEIK
notes: as for B7

Continued, binder first:

B1: HFB6-4hz11-hG1 (antibody, human IgG1, V domains shown)
VH: QVQLQESGPGLVKPSGTLSLTCAVSGFNIKDTYIHWVRQPPGKGLEWIGRNDPANGNTKYNPSFKSRATISADKSKNQASLKLSSVTAADTAVYYCASYEGYYERFGYWGQGTLVTVSS
VL: DVVMTQSPLSLPVTLGQPASISCRSSQSLLDRDGKTYLNWLQQRPGQSPRRLIYLVSKRDSGVPDRFSGSGSGTDFTLKISRVEAEDVGVYYCWQDTHFPYTFGQGTKLEIK
notes: as for B7
- binding result: binds

B2: HFB6-4hz17-hG1 (antibody, human IgG1, V domains shown)
VH: B1 VH
VL: B7 VL
notes: as for B7
- binding result: binds

B3: HFB6-4hz12-hG1 (antibody, human IgG1, V domains shown)
VH: B7 VH
VL: B1 VL
notes: as for B7
- binding result: binds

B4: HFB6-4hz13-hG1 (antibody, human IgG1, V domains shown)
VH: B8 VH with A16S, V68A, M70I, T74E, V79A
VL: B7 VL
notes: as for B7
- binding result: binds

B5: HFB6-4hz15-hG1 (antibody, human IgG1, V domains shown)
VH: EVQLVESGGGLVQPGRSLRLSCTTSGFNIKDTYIHWFRQAPGKGLEWVGRNDPANGNTKYTASFKGRATISADGSKSIAYLQMNSLKTEDTAVYYCASYEGYYERFGYWGQGTLVTVSS
VL: B7 VL
notes: as for B7
- binding result: binds

B6: HFB6-4hz19-hG1 (antibody, human IgG1, V domains shown)
VH: B8 VH with A16S, V68A, M70I, T74E, V79A
VL: B10 VL
notes: as for B7
- binding result: binds
